Results on one molecule are retold here after patent publication US20220010003A1 (Boehringer Ingelheim, published 2022).

Assay [1] concerns the target T1, recombinant mouse periostin (mouse, UniProt Q62009-2 24-811, limits assumed).
T1 construct: also called MoPOSTN
T1 sequence (looked up): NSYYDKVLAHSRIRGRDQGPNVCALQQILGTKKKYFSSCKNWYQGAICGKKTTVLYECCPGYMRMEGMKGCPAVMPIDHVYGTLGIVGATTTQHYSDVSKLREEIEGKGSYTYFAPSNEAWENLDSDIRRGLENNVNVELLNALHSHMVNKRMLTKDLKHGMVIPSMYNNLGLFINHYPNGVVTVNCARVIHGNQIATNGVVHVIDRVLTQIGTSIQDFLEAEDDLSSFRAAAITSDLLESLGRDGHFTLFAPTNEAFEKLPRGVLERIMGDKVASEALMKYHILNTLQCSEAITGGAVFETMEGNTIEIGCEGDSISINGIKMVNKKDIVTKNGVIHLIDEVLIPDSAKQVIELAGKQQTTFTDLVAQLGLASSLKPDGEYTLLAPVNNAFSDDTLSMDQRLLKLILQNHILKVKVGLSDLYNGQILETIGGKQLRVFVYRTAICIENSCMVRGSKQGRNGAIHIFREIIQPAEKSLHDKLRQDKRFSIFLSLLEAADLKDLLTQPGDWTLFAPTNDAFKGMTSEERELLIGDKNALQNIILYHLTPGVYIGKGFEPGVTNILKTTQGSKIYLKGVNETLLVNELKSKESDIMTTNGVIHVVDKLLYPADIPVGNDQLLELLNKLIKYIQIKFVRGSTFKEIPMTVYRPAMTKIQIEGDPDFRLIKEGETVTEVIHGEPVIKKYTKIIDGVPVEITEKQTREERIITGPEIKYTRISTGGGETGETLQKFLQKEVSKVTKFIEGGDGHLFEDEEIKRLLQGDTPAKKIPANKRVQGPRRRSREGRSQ
The experiment in a line: BLI (Octet Red); Table 6 ties the low end of the range to mouse periostin. On the procedure:
NB0828's binding affinity was determined across human, mouse, rat, and cyno species. NB0828 affinities were determined using the octet red system. Briefly, anti-human Fc (AHC) biosensors were used to capture NB0828, followed by association of titrating amounts of either recombinant human, mouse, rat, or cyno periostin (100 nM→0 nM; 1:2 dilutions). Recombinant human, mouse, and rat periostin was purchased commercially from R&D systems, whereas cyno periostin was made internally.
In general terms: In BLI a coated tip is dipped into the sample, and binding shifts an interference pattern.

The target of the next assay is T2, NB1248 (K302A) (human, UniProt Q15063 22-631, limits assumed).
T2 construct: also called POSTN EMI-FAS4 K302A
T2 sequence: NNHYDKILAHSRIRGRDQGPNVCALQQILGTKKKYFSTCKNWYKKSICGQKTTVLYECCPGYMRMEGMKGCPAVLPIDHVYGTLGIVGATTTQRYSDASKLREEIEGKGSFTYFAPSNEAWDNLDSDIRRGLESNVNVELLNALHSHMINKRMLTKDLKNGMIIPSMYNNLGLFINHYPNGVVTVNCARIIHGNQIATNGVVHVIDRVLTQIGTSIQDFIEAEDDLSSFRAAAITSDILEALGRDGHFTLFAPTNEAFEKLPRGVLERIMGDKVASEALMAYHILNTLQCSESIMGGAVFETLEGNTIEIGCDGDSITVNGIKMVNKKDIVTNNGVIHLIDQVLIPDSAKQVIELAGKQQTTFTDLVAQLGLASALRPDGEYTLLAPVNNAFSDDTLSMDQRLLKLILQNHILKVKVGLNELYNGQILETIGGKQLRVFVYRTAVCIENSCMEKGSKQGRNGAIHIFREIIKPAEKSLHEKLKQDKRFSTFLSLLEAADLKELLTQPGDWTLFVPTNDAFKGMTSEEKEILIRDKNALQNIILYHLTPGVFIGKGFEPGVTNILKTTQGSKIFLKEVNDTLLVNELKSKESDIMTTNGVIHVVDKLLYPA
The experiment in a line: ELISA on alanine variants of POSTN EMI-FAS4, second screen. For orientation: ELISA stands for enzyme-linked immunosorbent assay.

For another assay, the target named is T3, NB1243 (L287A) (human, UniProt Q15063 22-631, limits assumed).
T3 construct: also called POSTN EMI-FAS4 L287A
T3 sequence: T2 sequence with L266A, A281K
Described as above.

Residue numbers refer to the chain shown, from its start. Some results are limits rather than exact numbers.

B1: NB0828 (antibody, V domains shown)
VH: QVQLVQSGAEVKKPGASVKVSCKASGYTFTSYGISWVRQAPGQGLEWMGWISAYNGNTNYAQKLQGRVTMTTDTSTSTAYMELRSLRSDDTAVYYCARDMLVVPFDYWGQGTLVTVSS
VL: QSVLTQSSSASGTPGQTVTVSCSGSSSDIGSNRVNWYQQLPGTAPKLLIYSNDQRPSGVPDRFSGSKSGTSASLAISGLQSADEADYYCAAWDDSLSTYVFGSGTKVTVL
Usually Kd stands for a measure of binding affinity in units of concentration. Turning to B1, the dissociation constant (Kd) in assay [1] was 0.1 nM. The “loss from the max signal” value with NB1248 (K302A) and with NB1243 (L287A) was greater than 50% each time.
